A short description of one data set: Plasma stability, mouse. As to conditions: Mu, 2 μM, 37° C.
The nature of another data set: Plasma stability, human. As to conditions: Hu, 2 μM, 37° C.
Data set [1] in a line: Plasma protein binding (equilibrium dialysis), mouse. Type of data set: in vitro ADME, CD-1 mouse. The procedure:
(§1) HTD 96 a/b regenerated cellulose membrane strips with mass cutoff of 12-14 kDa were soaked in ultra-pure water at room temperature for 1 hour. Each swelled membrane was then soaked in 20:80 ethanol:water for 20 minutes.
(§2) Just prior to the experiment, the membranes were re-soaked in ultra-pure water. Plasma was prepared by thawing under cold water. The plasma was centrifuged to remove any clots and pH was adjusted to 7.0-8.0. Test articles and control compounds were diluted to 2 μM. The dialysis device was loaded by transferring 150 μL of the test article (in triplicate) to the donor side. The dialysis device was placed in a humidified incubator at 37° C. with 5% CO2 in a shaking platform that rotated slowly for 4 hours. After incubation, 50 μL of the supernatant was taken from both sides and analyzed by LC-MS/MS.
(§3) To optimize the albumin binding potential of the heterobiligand, a plasma protein binding (PPB) experiment was performed. This experiment measured the amount of test article bound and free after equilibrating with plasma. Compound #6305 (folate-hshta-Lys(MPBA)-Gly-Phe-Lys(DOTA) (SEQ ID NO:6)), which contains the MPBA albumin binder, was 96.26% bound to mouse plasma and 98.34% bound to human plasma. […] In mouse and human plasmas 99.6% and 99.5% was bound, respectively.
On the technique in general: Equilibrium dialysis compares concentrations on both sides of a semipermeable membrane.

Data set [2] in a line: Plasma protein binding (equilibrium dialysis), human. Type of data set: in vitro ADME. The procedure: as §1, §2, §3
Data set [3] in a line: Maximum tolerated dose / tolerability study.
Description: Animals were monitored for signs of toxicity and weighed twice weekly. […] The second and third doses were administered 21 days following the previous dose.
Two separate MTD experiments were undertaken. […] A second experiment interrogated lower doses.
Mouse body weight and behavior were monitored. […] The second and third doses were administered 21 days following the previous dose.
The next data set concerns OVCAR3 xenografts. The data set is described as follows: 177Lu FOLR1 radioligand therapy in OVCAR3 xenograft model. It is filed as in vivo, mouse. As to conditions: for body weight change: single dose. The procedure:
Water and food were provided ad libitum. […] Tumor growth was monitored by caliper measurements.
OVCAR3 tumor bearing mice were used to study FOLR1-directed radioligand therapy (RLT) for treatment of ovarian cancer. Animals were administered a single dose of heterobiligand (vehicle control) or 111, 37, 18.5, 9.25, or 3.7 MBq [^177Lu]DOTA-labeled heterobiligand. Mice received the dose intravenously (i.v.) via the tail vein. To monitor the effect of the RLT, tumor size measurements were taken twice weekly and body weights were measured.
The engraftment was allowed to expand until palpable tumor sizes ranging in size from 218-384 mm^3 were detected. […] These observed effects were consistant with radiation overdosing. […] The best response was observed using 9.25 MBq Lu-177 Heterobiligand (compound #2809).
Single dose treatments at 18.5 MBq/nmol specific activity. OVCAR3 mouse model was used. 10^7 cell tumors were implanted in the mice one month before administration of ^177Lu-#6305. Five mice each were administered Cold #6305, 9.25 MBq Lu177-#6305, and 14.8 MBq Lu177-#6305, and two mice were administered 29.6 MBq Lu177-#6305. Tumor growth and body weight were then monitored.
Female NSG mice were implanted subcutaneously with OVCAR3 cells. Once tumors reached volumes of 200 mm^3, the animals were treated with 177-Lu 7327. Three treatment arms of 9.25 MBq, 14.8 MBq, and 29.6 MBq were studied.
Female NSG mice were implanted subcutaneously with human OVCAR3 (FOLR+) ovarian cancer cells. Once tumors reached volumes of 200 mm^3, the animals were treated with Indi ^177Lu-7327. One treatment arm of 74 MBq and a control group of 0 MBq were studied (FIGS. 41 and 38A). […] The second dose was administered 21 days following the first dose. Statistically significant differential between treated and control was reached 24 days post-injection (three days following the second dose) for the 74 MBq arm. P values (* for p≤0.05, ** for p≤0.01) were determined by ordinary one-way ANOVA with Tukey's multiple comparisons test.

A short description of data set [4]: Gamma counting of tissue radioactivity. Type of data set: in vivo, mouse. As to conditions: for kidney radioactivity / liver radioactivity / tumor radioactivity: Day 28 post-injection. The text has this:
7 days after Lu177-#6305 injection, the 29.6 MBq group lost 20% body weight. These mice were sacrificed. Tissues and plasma were collected for evaluation of radioactivity by gamma counting. The toxicity may have resulted from its accumulation in the kidneys and liver (FIG. 28). At study endpoint (Day 28 post-injection), plasma, tumors, kidneys, lungs, hearts, livers, and muscles from 9.25 MBq and 14.8 MBq treatment groups were collected for evaluation of radioactivity by gamma counting (FIG. 29).

For data set [5], the system named is OVCAR3 (FOLR1+) tumor bearing NSG mice. The data set is described as follows: in vivo. As to conditions: mouse. The procedure:
Female, 7-week-old NSG mice were housed under pathogen-free conditions. Water and food were provided ad libitum. To create mice with FOLR1+ ovarian xenograft tumors, mice were injected subcutaneously with OVCAR3 cells (1×10^7 cells per mouse) resuspended in 50% Matrigel in PBS into the shoulder region. Tumor growth was monitored by caliper measurements. OVCAR3 is a human ovarian adenocarcinoma known to over-express FOLR1.
^68Ga PET imaging was used to study in vivo biodistribution of heterobiligands in non-tumor bearing (healthy) mice and OVCAR3 tumor bearing mice. 100-200 μCi of [^68Ga]DOTA-labeled heterobiligand was administered intravenously (i.v.) via the tail vein of each mouse. Dynamic PET imaging was performed from 0-1 h, followed by acquisition of static PET images at 2 h and 4 h post-injection. CT scans were acquired for anatomical reference. Imaging was performed on an Inveon microPET/CT small animal scanner. The PET signal was quantitated by three-dimensional ROI analysis and represented as percent injected dose (% ID) vs. time ([…]) for major organs including tumor, liver, heart, lung, bladder, and kidney.
Evaluation of a folate-hshta (SEQ ID NO:6) Nterm heterobiligand bearing both an albumin binder and DOTA chelator in PET was a priority, given that DOTA can accommodate both ^68Ga for imaging and ^177Lu for radiotherapy. A 200 μCi dose of ^68Ga-labeled folate-hshta-PEG3-Lys(MPBA)-Lys(DOTA) (SEQ ID NO:6) (compound #2809) was injected i.v. via tail vein in an NSG mouse bearing s.c. human OVCAR3 (FOLR1+) tumor. ^68Ga PET/CT imaging scans were performed at 0-1 h (dynamic), 2 h (static), and 4 h (static). […] The time-course biodistribution of ^68Ga-labeled folate-hshta-PEG3-Lys(MPBA)-Lys(DOTA) (SEQ ID NO:6) (compound #2809) was calculated to quantify the uptake in major organs including the tumor (FIG. 17). […] Larger tumors (490 mm^3) were also evaluated with the ^68Ga-chelated PET probe.
Images were captured for compound #1307 at the time points 5 min, 10 min, 15 min, 30 min, 1 h, 2 h, and 4 h. PET/CT images were taken following the injection of 4 female NSG mice with ^68Ga-chelated compound #2809. […] Images for mouse 4 are shown in FIG. 23 (Compounds #1307 and #2809) and FIG. 24 (Compound #1307).
Biodistribution was initially evaluated by PET imaging, as the time frame for a significant portion of clearance is roughly similar to the time frame of PET imaging experiments. Indi ^68Ga-7327 was injected via the tail vein into OVCAR3 (FOLR+) tumor implanted female NSG mice once the tumor size reached 200 mm^3, and microPET/CT scans were acquired at 5 min, 10 min, 15 min, 30 min, 1 h, 2 h, and 4 h post-injection. PET images were corrected for CT-based photon attenuation, detector normalization and radioisotope decay and converted to units of percent injected dose per cc (% ID/cc).

The mark [6] stands for this setting: 29.6 MBq group, Day 7 post-injection.

4 compounds from patent US11733246B2, “Compositions, imaging, and therapeutic methods targeting folate receptor 1 (FOLR1)” (Indi Molecular, Inc., priority 2020, dated 2023) can be followed below.

Numbered stars: 1 amine (or outer) side, 2 acyl side, 3 side chain; on linkers, the order of the positions; unused ones are H or OH. Bridge positions count the residues as written; N and C are the ends. Square brackets hold non-standard residues; d marks the D form. Triazole bridges read from a SMILES are 1,4-linked. Peptide text beside a SMILES is read from it. * marks the point of attachment. DOTA = O=C(O)CN1CCN(CC(=O)O)CCN(CC(=O)*)CCN(CC(=O)O)CC1; Pteroyl = Nc1nc2ncc(CNc3ccc(C(=O)*)cc3)nc2c(=O)[nH]1; Butanoyl(4-(4-I-phenyl)) = O=C(CCCc1ccc(I)cc1)*; Butanoyl(4-(4-MePh)) = Cc1ccc(CCCC(=O)*)cc1; Lys(N3) = [N-]=[N+]=NCCCC[C@H](N)C(=O)O; γGlu = O=C(O)[C@H](CCC(=O)[*:2])N[*:1]; X3 = O=C(CO/N=C/c1ccc(F)cc1)*; AEEEA = NCCOCCOCCOCC(=O)O; Pra = C#CC[C@H](N)C(=O)O

What is called half-life is the time needed for the level to fall by half in the phase considered. A lower half-life goes with fast loss. The term fraction unbound denotes the share of the substance not bound to proteins or other matrix. High values mean much free substance, low ones little free substance.

Description for Plasma stability, human: Plasma was thawed in a 37° C. water bath. Residual clots were removed via centrifugation at 4000 rpm for 5 minutes. The pH of the plasma was adjusted to 7.4 if required. Test articles were diluted to 100 μM by diluting a 1 mM working solution (in DMSO) with 45% methanol in water. To 98 μL of plasma was added 2 μL of the 100 μM solution, resulting in 2 μM final concentration of the test article. Samples were incubated at 37° C. in a water bath. At the indicated time points (0, 10, 30, 60, 120 minutes) 100 μL of 4% H3PO4 was added followed by 800 μL of stop solution (200 ng/mL tolbutamide and 200 ng/mL labetalol in 100% acetonitrile). The samples were centrifuged and the plasma protein-free supernatant (100 μL) was subjected to LC-MS/MS analysis.

In the case of `C[C@H](O)[C@H]1NC(=O)[C@@H](Cc2c[nH]cn2)NC(=O)[C@@H](CO)NC(=O)[C@@H](Cc2c[nH]cn2)NC(=O)[C@@H](NC(=O)CC[C@H](NC(=O)c2ccc(NCc3cnc4nc(N)[nH]c(=O)c4n3)cc2)C(=O)O)Cc2cn(nn2)CCCC[C@@H](C(=O)NCCOCCOCCOCC(=O)N[C@@H](CCCCNC(=O)CO/N=C/c2ccc(F)cc2)C(N)=O)NC(=O)[C@@H](C)NC1=O` [compound #2, Fol-hshta-PEG3-Lys(FB)] ({Pteroyl-γGlu}-[Pra][dH][dS][dH][dT][dA][Lys(N3)][AEEEA]K(X3)-NH2; triazole 1-7), the half-life in the data set “Plasma stability, mouse” (mouse, Plasma Stability (t 1/2)) was > 289 min; in “Plasma stability, human” (Plasma Stability (t 1/2)), > 289 min. The recovery in data set [1] is 115%; in data set [2], 85%. Further, the fraction unbound in data set [1] (mouse, plasma) came out at 0.798; in data set [2] (human, plasma) it was 0.57.
With `Cc1ccc(CCCC(=O)NCCCC[C@H](NC(=O)[C@@H]2CCCCn3cc(nn3)C[C@H](NC(=O)CC[C@H](NC(=O)c3ccc(NCc4cnc5nc(N)[nH]c(=O)c5n4)cc3)C(=O)O)C(=O)N[C@H](Cc3c[nH]cn3)C(=O)N[C@H](CO)C(=O)N[C@H](Cc3c[nH]cn3)C(=O)N[C@H]([C@H](C)O)C(=O)N[C@H](C)C(=O)N2)C(=O)NCC(=O)N[C@@H](Cc2ccccc2)C(=O)N[C@@H](CCCCNC(=O)CN2CCN(CC(=O)O)CCN(CC(=O)O)CCN(CC(=O)O)CC2)C(=O)O)cc1` [^177Lu-#6305, metal not drawn] ({Pteroyl-γGlu}-[Pra][dH][dS][dH][dT][dA][Lys(N3)]K(Butanoyl(4-(4-MePh)))GFK(DOTA)-OH; triazole 1-7), the body weight entry in data set [3] (doses of 29.6, 37, 111 and 185 MBq, first dose) is listed as “weight loss after the first dose”; in data set [3] (single dose of 14.8, 18.5 and 22.2 MBq) it was “only minimal loss in body weight”. In addition, the “tolerability of second dose” value in data set [3] (second dose 7 days after the first (29.6-185 MBq)) and in data set [3] (second dose administered 21 days (14.8-22.2 MBq)) was “not tolerated” throughout. In addition, the body weight change entry in the data set with OVCAR3 xenografts (9.25 MBq and 14.8 MBq) is reported as “No significant body weight change”; with OVCAR3 xenografts (29.6 MBq) it was “substantial body weight decrease”. In addition, the body weight loss in the data set with OVCAR3 xenografts (29.6 MBq, 7 days after injection) is given as 20%. The kidney radioactivity in data set [4] (9.25 MBq group) is recorded as 414 CPM/g; in data set [4] (14.8 MBq group) it was 653 CPM/g. Besides, the liver radioactivity in data set [4] (9.25 MBq group) is 685 CPM/g; in data set [4] (14.8 MBq group) it was 1,264 CPM/g. For the same compound, the tumor radioactivity in data set [4] (9.25 MBq group) is 33 CPM/g; in data set [4] (14.8 MBq group), 60 CPM/g. The liver/kidney ratio is reported as 1.94 in data set [4] (14.8 MBq group on Day 28) and 0.27 in data set [4] (29.6 MBq group on Day 7). Besides, the “radioactivity in the kidney” value in data set [4] (setting [6]) is 394,834 CPM/g. Further, the “radioactivity in the liver” value in data set [4] (setting [6]) is 107,374 CPM/g. The “radioactivity in the tumor” value in data set [4] (setting [6]) is listed as 42,674 CPM/g. In addition, the tissue to tissue ratio at 672 h in data set [4] (mouse, tumor and kidney, total radioactivity, 14.8 MBq group, Day 28) came out at 0.093. Besides, the tissue to tissue ratio at 168 h in data set [4] (mouse, tumor and kidney, total radioactivity, 29.6 MBq group, Day 7) stood at 0.108.
In the case of `CC(C)[N+](C)(CCOC(=O)C1c2ccccc2Oc2ccccc21)C(C)C` [Propantheline bromide, reference compound], the half-life at 2 μM was 44.8 min in “Plasma stability, mouse” (CD-1, mouse, pH 7.4, Plasma Stability (t 1/2)) and 11.6 min in “Plasma stability, human” (pH 7.4, Plasma Stability (t 1/2)).
Consider `C[C@H](O)[C@H]1NC(=O)[C@@H](Cc2c[nH]cn2)NC(=O)[C@@H](CO)NC(=O)[C@@H](Cc2c[nH]cn2)NC(=O)[C@@H](NC(=O)CC[C@H](NC(=O)c2ccc(NCc3cnc4nc(N)[nH]c(=O)c4n3)cc2)C(=O)O)Cc2cn(nn2)CCCC[C@@H](C(=O)N[C@@H](CCCCNC(=O)CCCc2ccc(I)cc2)C(=O)NCC(=O)N[C@@H](Cc2ccccc2)C(=O)N[C@@H](CCCCNC(=O)CN2CCN(CC(=O)O)CCN(CC(=O)O)CCN(CC(=O)O)CC2)C(=O)O)NC(=O)[C@@H](C)NC1=O` [^68Ga-chelated compound #1307, metal not drawn] ({Pteroyl-γGlu}-[Pra][dH][dS][dH][dT][dA][Lys(N3)]K(Butanoyl(4-(4-I-phenyl)))GFK(DOTA)-OH; triazole 1-7), for which, in data set [5], the “heart exposure compared to compound #2809” value is “less than two-fold increase”, the kidney absorption entry was “very low kidney absorption”, the “kidney dose compared to compound #2809” value is given as “seven-fold reduction” and the “lung accumulation compared to compound #2809” value is “greater than three-fold increase”.
